What all share (details): SpdR and RtrB: 20 mM HEPES pH 7.8, 4 mM MgCl2, 37 mM KCl, 1 mM CaCl2, 0.75 mM DTT, 8% glycerol, 75 ug/ml BSA; RtrA: 10 mM Tris pH 7.6, 2 mM MgCl2, 50 mM KCl …
In data set [1] the target is T1, RtrA (Caulobacter crescentus (NA1000?)) (UniProt A0A0H3CB76).
T1 sequence: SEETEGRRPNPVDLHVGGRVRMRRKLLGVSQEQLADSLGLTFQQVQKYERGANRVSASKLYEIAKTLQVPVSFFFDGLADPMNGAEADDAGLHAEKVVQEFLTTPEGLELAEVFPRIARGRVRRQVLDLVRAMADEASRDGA
Kind of data set: EMSA. Background: A gel shift assay detects complexes by their altered migration in electrophoresis.

Data set [2] addresses T2, RtrB (Caulobacter crescentus (NA1000?)) (UniProt A0A0H3C9Q5).
T2 sequence: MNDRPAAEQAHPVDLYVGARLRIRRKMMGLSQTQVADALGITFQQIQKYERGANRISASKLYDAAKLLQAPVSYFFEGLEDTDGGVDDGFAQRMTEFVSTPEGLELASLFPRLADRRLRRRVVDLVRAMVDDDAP
Nature of the data set: EMSA.

For data set [3], the target named is T3, SpdR(D64E) D64E (Caulobacter crescentus (NA1000?)) (UniProt A0A0H3C6B9).
T3 sequence: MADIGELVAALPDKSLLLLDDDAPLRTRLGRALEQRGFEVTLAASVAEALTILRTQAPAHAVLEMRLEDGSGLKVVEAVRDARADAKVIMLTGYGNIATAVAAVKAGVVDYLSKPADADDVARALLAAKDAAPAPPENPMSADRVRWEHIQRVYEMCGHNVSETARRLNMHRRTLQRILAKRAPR
Kind of data set: EMSA.

The target of data set [4] is T1, RtrA (Caulobacter crescentus (NA1000?)). Kind of data set: competition.
Data set [5] deals with T2, RtrB (Caulobacter crescentus (NA1000?)). Nature of the data set: competition.

Experimental findings from PMC6530869 are described below.

As to “TGGTGGTCCTGATCCTCCTGCAGCGACCGATCGTGCATCGCGCGCTGGTTCCCGCGCTCCTGCTCGCCTGGCTGGTCCTGAACGGGACGGACGTGATGCACTACAGCTAGGGCTCGGCGGCTCTGGTAAACAACCCAACCCCGATCAACGAAGGTTTAGAAAGCTTTAAGAGAAACGTTGCGAATTGTAAAATTCTTCTCTGGGTTGAAACCCATTTCGGGTGTATCGATGAGGTGTCGGGCCATTTATTGAGCGCGGACAGGATGTTGTCAGTG (double strand) [hfiA promoter probe]”, the values for the binding result in data set [1], in data set [2] and in data set [3] were “binds”, “binds” and “no binding”, respectively.

Turning to “TGGTGGTCCTGATCCTCCTGCAGCGACCGATCGTGCATCGCGCGCTGGTTCCCGCGCTCCTGCTCGCCTGGCTGGTCCTGAACGGGACGGACGTGATGCACTACAGCTAGGGCTCGGCGGCTCTGGTAAACAACCCAACCCCGATCAACGAAGGTTTAGAAAGCTTTAAGAGAAACGTTGCGAATTGTAAAATTCTTCTCTGGGTTGAAACCCATTTCGGGTGTATCGATGAGGTGTCGGGCCATTTATTGAGCGCGGACAGGATGTTGTCAGTG (double strand) [unlabeled specific hfiA competitor]”, the binding entry in data set [4] and in data set [5] was “binds” in each case.

Consider “CTAGGGACTGCCATCTTCGGCTGTATTTCAGATTTGTTTCCGCATTGTGGCTGCGACGAAATGTCGCGGTACCCGCTTGTGCGCTGTTTTGACGCGATTTCGTCATTGACGGCTCTCCTCACGCGAGAACACTGTTCTTGTAGTGCTTGCTCCGATGGGCTGATTGGGCAAGCCAGAGGGGTGGGATGTCTGGTTACGA (double strand) [cspD promoter probe]”, for which the binding entry in data set [3] is on record as “binds”.
